{
  "source": "patent US20060008801A1",
  "about": "(EFFECTOR CELL INSTITUTE, published 2006)",
  "binders": {"B1": {"name": "HA-FNT (isotope-labeled HA-fused recombinant FROUNT protein, clone 19 part, made in vitro from pACT2-FROUNT) (other)", "chain": "LVSDRFLRDYCERGCFSDLDLIDNLGPAMMLSDRLTFLGKYREFHRMYGEKRFADAASLLLSLMTSRIAPRSFWMTLLTDALPLLEQKQVIFSAEQTYELMRCLEDLTSRRPVHGESDTEQLQDDDIETTKVEMLRLSLARNLARAIIREGSLEGS", "modifications": "isotope-labeled", "notes": "Co-IP Kit by PCR from pACT2-FROUNT; also called HA-tagged recombinant FROUNT protein; not shown: vector-encoded residues m"}},
  "biological_target": "T1, myc-p53 (isotope-labeled myc-fused recombinant p53, made in vitro from pAS2-1-p53) (UniProt P02340 72-390, isotope-labeled)",
  "T1 construct": "Control of the coimmunoprecipitation",
  "T1 sequence (P02340 72-390)": "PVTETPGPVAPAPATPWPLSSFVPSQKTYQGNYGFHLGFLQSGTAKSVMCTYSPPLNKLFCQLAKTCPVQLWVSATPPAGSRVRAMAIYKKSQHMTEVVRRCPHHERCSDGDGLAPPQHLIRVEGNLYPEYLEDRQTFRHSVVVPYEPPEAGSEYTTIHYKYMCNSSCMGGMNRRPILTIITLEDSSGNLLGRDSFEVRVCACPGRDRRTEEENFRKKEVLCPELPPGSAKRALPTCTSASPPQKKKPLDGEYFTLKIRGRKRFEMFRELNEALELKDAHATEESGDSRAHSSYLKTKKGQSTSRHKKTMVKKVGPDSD",
  "assay": "coimmunoprecipitation of isotope-labeled recombinant proteins, SDS-PAGE",
  "text": "In the second test, coding sequences of pAS2-1-CCR2b and pAS2-1-p53 were amplified by PCR using a T7 promoter, a 5′ primer encoding myc epitope: 5′[…] 3′ (SEQ ID NO:44) and a 3′ primer originating in p AS2-1: 5′[…]3′ (SEQ ID NO:45) to express an epitope-tagged protein. Similarly, pACT2-FROUNT was amplified by PCR using a T7 promoter, a 5′ primer encoding HA epitope: 5′[…]3′ (SEQ ID NO:46) and a 3′ primer originating in p ACT2: 3′[…]5′ (SEQ ID NO:47). Then, isotope-labeled recombinant proteins were produced in accordance with user's manual of […] Co-IP Kit (CLONTECH Laboratories, Inc.). By the coimmunoprecipitation method using these recombinant proteins, the specific binding ability between CCR2 and FROUNT was confirmed again (FIG. 2). […] Namely, coprecipitation occurred by using the HA- or Myc-specific antibody in the coexistence of myc-CCR2 and HA-FNT, the coprecipitation disappeared by adding an antigen peptide and no coprecipitation occurred in the case of myc-p53, thereby indicating specific binding ability.",
  "data": [
    {"binder": "B1", "values": [
      {"measurement": "binding result", "result": "no binding"}
    ]}
  ]
}
